Publication PMC3365654 (The Febs Journal, 2012)

Target: wildtype full-length Grb2 (human, UniProt P62993 1-217)
Assay: ITC

Chain of wildtype full-length Grb2 (P62993 whole entry): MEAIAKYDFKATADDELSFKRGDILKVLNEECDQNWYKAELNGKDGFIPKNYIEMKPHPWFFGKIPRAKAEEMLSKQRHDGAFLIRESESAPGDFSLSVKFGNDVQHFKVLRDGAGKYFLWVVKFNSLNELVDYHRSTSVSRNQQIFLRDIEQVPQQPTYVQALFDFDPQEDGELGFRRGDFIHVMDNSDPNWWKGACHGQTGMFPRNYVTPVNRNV

| Binder | Kd | dH | stoichiometry N |
| --- | --- | --- | --- |
| wildtype proline-rich (PR) domain of Gab1 (domain or fragment, human, UniProt Q13480 331-530, looked up) TSKLDTIPDIPPPRPPKPHPAHDRSPVETCSIPRTASDTDSSYCIPTAGMSPSRSNTISTVDLNKLRKDASSQDCYDIPRAFPSDRSSSLEGFHNHFKVKNVLTVGSVSSEELDENYVPMNPNSPPRQHSSSFTEPIQEANYVPMTPGTFDFSSFGMQVPPPAHMGFRSSPKTPPRRPVPVADCEPPPVDRNLKPDRKVK | 7.21 µM | -34.5 kcal/mol | 1.94 |
| PR domain of Gab1 with the G2 motif mutated (domain or fragment, human, UniProt Q13480 331-530, looked up) TSKLDTIPDIPPPRPPKPHPAHDRSPVETCSIPRTASDTDSSYCIPTAGMSPSRSNTISTVDLNKLRKDASSQDCYDIPRAFPSDRSSSLEGFHNHFKVKNVLTVGSVSSEELDENYVPMNPNSPPRQHSSSFTEPIQEANYVPMTPGTFDFSSFGMQVPPPAHMGFRSSPKTPPRRPVPVADCEPPPVDANLAPDRKVK | 20.3 µM | -13.2 kcal/mol | 1.02 |
| PR domain of Gab1 with the G1 motif mutated (domain or fragment, human, UniProt Q13480 331-530, looked up) TSKLDTIPDIPPPAPPAPHPAHDRSPVETCSIPRTASDTDSSYCIPTAGMSPSRSNTISTVDLNKLRKDASSQDCYDIPRAFPSDRSSSLEGFHNHFKVKNVLTVGSVSSEELDENYVPMNPNSPPRQHSSSFTEPIQEANYVPMTPGTFDFSSFGMQVPPPAHMGFRSSPKTPPRRPVPVADCEPPPVDRNLKPDRKVK | 2.24 µM | -23.4 kcal/mol | 1.07 |
